According to article doi:10.1101/2024.06.26.600769 (bioRxiv, 2024):
No end group written: not given here.

Assays:
[1] = target: T1, E. coli β-clamp (bacterial DNA sliding clamp), His6-tagged (E. coli, UniProt P0A988 1-366); assay: ITC
[2] = target: T1, E. coli β-clamp (bacterial DNA sliding …); assay: NMR titration

T1 sequence (P0A988 whole entry): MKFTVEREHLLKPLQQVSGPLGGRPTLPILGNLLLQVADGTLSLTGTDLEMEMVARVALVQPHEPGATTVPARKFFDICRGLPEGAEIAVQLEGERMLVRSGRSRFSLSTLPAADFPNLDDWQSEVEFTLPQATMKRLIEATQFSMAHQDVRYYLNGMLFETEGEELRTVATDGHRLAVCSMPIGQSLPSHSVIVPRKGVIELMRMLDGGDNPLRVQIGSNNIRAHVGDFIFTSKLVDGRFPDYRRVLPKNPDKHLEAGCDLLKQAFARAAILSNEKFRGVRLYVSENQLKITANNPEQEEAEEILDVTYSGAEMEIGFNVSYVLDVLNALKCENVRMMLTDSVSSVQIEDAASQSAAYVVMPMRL

| Binder | binding result [1] | binding result [2] |
| --- | --- | --- |
| DWRGLIGSEQVELEFD | binds |  |
| GWGEAPVCAQPLLIPL (not fully specified (C-terminus); printed as GWGEAPVCAQPLLIPL-NH2) |  | binds |
| GWATQVDGTQMSLLSV (not fully specified (C-terminus); printed as GWATQVDGTQMSLLSV-NH2) |  | binds |
| GWLDPQMERQLVLGL [pol IV* peptide, 15-mer of the polymerase IV C-terminus with an N-terminal Trp (GWLDPQMERQLVLGL)] |  | binds |
